{"source": "paper PMC5469197", "about": "“ANGUSTIFOLIA, a Plant Homolog of CtBP/BARS Localizes to Stress Granules and Regulates Their Formation” (Frontiers in Plant Science, 2017)", "target": "PROTEIN KINASE SU… PROTEIN (AIK1), Prot-A fusion (Arabidopsis thaliana)", "sequence (main, as listed by the source)": "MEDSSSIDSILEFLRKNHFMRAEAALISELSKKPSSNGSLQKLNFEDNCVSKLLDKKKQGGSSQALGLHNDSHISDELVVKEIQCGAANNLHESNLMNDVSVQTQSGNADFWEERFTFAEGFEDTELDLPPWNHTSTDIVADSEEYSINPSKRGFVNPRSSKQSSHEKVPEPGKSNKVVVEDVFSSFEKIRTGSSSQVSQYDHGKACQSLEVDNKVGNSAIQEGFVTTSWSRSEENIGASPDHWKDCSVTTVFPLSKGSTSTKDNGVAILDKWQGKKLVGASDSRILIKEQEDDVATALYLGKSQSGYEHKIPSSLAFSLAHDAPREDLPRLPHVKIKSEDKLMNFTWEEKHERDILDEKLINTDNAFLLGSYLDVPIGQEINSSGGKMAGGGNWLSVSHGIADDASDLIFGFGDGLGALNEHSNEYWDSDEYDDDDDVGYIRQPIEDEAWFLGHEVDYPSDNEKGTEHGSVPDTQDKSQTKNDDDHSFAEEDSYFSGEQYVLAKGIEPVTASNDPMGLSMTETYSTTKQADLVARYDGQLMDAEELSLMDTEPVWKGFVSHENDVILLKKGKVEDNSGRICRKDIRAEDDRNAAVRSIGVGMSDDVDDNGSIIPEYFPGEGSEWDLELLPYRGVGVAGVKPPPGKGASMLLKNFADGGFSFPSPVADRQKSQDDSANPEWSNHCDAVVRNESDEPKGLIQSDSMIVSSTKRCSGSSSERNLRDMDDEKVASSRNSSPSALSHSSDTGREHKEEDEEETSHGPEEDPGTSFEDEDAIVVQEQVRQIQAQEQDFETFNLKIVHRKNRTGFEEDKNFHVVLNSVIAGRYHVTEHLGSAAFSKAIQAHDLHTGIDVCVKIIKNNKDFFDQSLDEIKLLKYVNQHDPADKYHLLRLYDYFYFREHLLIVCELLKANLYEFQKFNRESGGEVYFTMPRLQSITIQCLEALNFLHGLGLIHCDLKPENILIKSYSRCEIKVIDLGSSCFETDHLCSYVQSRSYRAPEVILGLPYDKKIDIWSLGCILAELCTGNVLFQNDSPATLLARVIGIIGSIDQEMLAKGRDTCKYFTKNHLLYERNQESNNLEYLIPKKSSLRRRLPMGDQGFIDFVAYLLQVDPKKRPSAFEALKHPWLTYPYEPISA", "assay": "co-IP; LUMIER in HEK293TN cells: Prot-A fusion co-transfected with Renilla luciferase fusion (AN always the luciferase fusion with the interactors); luciferase activity before (input) and after pulldown; percentage pulldown = pulldown/input x 100; empty vectors as negative control; positive if more than two times the background"}
{"binder": "AN^DOQ, Renilla luciferase fusion (LUMIER) (natural protein) MSKIRSSATMPHRDQPSPASPHVVTLNCIEDCALEQDSLAGVAGVEYVPLSRIADGKIESATAVLLHSLAYLPRAAQRRLRPHQLILCLGSADRAVDSTLAADLGLRLVHVDTSRAEEIADTVMALILGLLRRTHLLSRHALSASGWLGSLQPLCRGMRRCRGMVLGIVDRSVSARYLASRSLAFKMSVLYFDVPEGDEERIRPSRFPRAARRMDTLNDLLAASDVISLHCALTNDTVQILNAECLQHIKPGAFLVNTGSCQLLDDCAVKQLLIDGTIAGCALDGAEGPQWMEAWVKEMPNVLILPRSADYSEEVWMEIREKAISILHSFFLDGVIPSNTVSDEEVEESEASEEEEQSPSKHEKLAIVESTSRQQGESTLTSTEIVRREASELKESLSPGQQHVSQNTAVKPEGRRSRSGKKAKKRHSQQKYMQKTDGSSGLNEESTSRRDDIAMSDTEEVLSSSSRCASPEDSRSRKTPLEVMQESSPNQLVMSSKKFIGKSSELLKDGYVVALYAKDLSGLHVSRQRTKNGGWFLDTLSNVSKRDPAAQFIIAYRNKDTVGLRSFAAGGKLLQINRRMEFVFASHSFDVWESWSLEGSLDECRLVNCRNSSAVLDVRVEILAMVGDDGITRWID", "values": [{"measurement": "interaction as percent of wild-type AN (% of wild-type AN)", "result": 1.6}]}
